This test concerns the target MDM2 (In-house, 41 kD) (UniProt Q00987). The test is described as follows: competitive fluorescence polarization, MDM2 with FAM-labeled linear peptide; graded scale of paragraph 458. On the technique in general: In fluorescence polarisation assays a small probe gives low polarisation when free and higher when bound to something large.

Values joined by “and” are separate entries in the source; they are usually repeats but may differ in a detail not shown here. Equal entries are not always repeated.

MDM2 (In-house, 41 kD), sequence (Q00987 1-138 limits assumed): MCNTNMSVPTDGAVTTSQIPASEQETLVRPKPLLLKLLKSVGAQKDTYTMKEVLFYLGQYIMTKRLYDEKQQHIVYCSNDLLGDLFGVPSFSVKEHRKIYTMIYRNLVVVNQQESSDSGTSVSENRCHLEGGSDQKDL

For the substance “peptidomimetic macrocycle SP758, Ac-tawya$s8f4CF3ekllr$r5a-NH2 (peptide)”, the IC50 is > 10 nM and < 100 nM.

As to “peptidomimetic macrocycle SP752, Ac-t$r5wya$r5f4CF3ekllr-NH2 (peptide)”, the IC50 is > 100 nM and < 1000 nM.

For the substance “peptidomimetic macrocycle SP753, Ac-tawy$r5nf4CF3e$r5llr-NH2 (peptide)”, the IC50 was > 10 nM and < 100 nM.

Substance “peptidomimetic macrocycle SP755, Ac-tawyanf4CF3e$r5llr$r5a-NH2 (peptide)” yielded an IC50 of less than 10 nM.

As for “peptidomimetic macrocycle SP757, Ac-tawy$s8nf4CF3ekll$r5a-NH2 (peptide)”, the IC50 was less than 10 nM.

In the case of “peptidomimetic macrocycle SP754, Ac-tawya$r5f4CF3ek$r5lr-NH2 (peptide)”, the IC50 is > 100 nM and < 1000 nM.

For “peptidomimetic macrocycle SP756, Ac-t$s8wyanf4CF3e$r5llr-NH2 (peptide)”, the IC50 was > 10 nM and < 100 nM.

In general, IC50 refers to the concentration that gives 50% inhibition.

(Values after patent US8927500.)
